Source: patent US20220268777A1

Columns and labels:
protein PADI2 [1] = target: protein PADI2 (UniProt Q9Y2J8); assay: sandwich ELISA, capture 197, dilution row A
[2] = target: protein PADI4 (peptidylarginine deiminase 4) antigen (human) (UniProt Q9UM07); assay: sandwich ELISA, capture 197, dilution row A
protein PADI2 [3] = target: protein PADI2 (UniProt Q9Y2J8); assay: sandwich ELISA, capture 197, dilution row B
[4] = target: protein PADI4 (peptidylarginine deiminase 4) antigen (human) (UniProt Q9UM07); assay: sandwich ELISA, capture 197, dilution row B
protein PADI2 [5] = target: protein PADI2 (UniProt Q9Y2J8); assay: sandwich ELISA, capture 197, dilution row C
[6] = target: protein PADI4 (peptidylarginine deiminase 4) antigen (human) (UniProt Q9UM07); assay: sandwich ELISA, capture 197, dilution row C
protein PADI2 [7] = target: protein PADI2 (UniProt Q9Y2J8); assay: sandwich ELISA, capture 197, dilution row D
[8] = target: protein PADI4 (peptidylarginine deiminase 4) antigen (human) (UniProt Q9UM07); assay: sandwich ELISA, capture 197, dilution row D
protein PADI2 [9] = target: protein PADI2 (UniProt Q9Y2J8); assay: sandwich ELISA, capture 197, dilution row E
[10] = target: protein PADI4 (peptidylarginine deiminase 4) antigen (human) (UniProt Q9UM07); assay: sandwich ELISA, capture 197, dilution row E
protein PADI2 [11] = target: protein PADI2 (UniProt Q9Y2J8); assay: sandwich ELISA, capture 197, dilution row F
[12] = target: protein PADI4 (peptidylarginine deiminase 4) antigen (human) (UniProt Q9UM07); assay: sandwich ELISA, capture 197, dilution row F
protein PADI2 [13] = target: protein PADI2 (UniProt Q9Y2J8); assay: sandwich ELISA, capture 197, dilution row G
[14] = target: protein PADI4 (peptidylarginine deiminase 4) antigen (human) (UniProt Q9UM07); assay: sandwich ELISA, capture 197, dilution row G
protein PADI2 [15] = target: protein PADI2 (UniProt Q9Y2J8); assay: sandwich ELISA, capture 197, dilution row H (maybe blank)
[16] = target: protein PADI4 (peptidylarginine deiminase 4) antigen (human) (UniProt Q9UM07); assay: as above

Sequence of UniProt Q9Y2J8 (Q9Y2J8 whole entry): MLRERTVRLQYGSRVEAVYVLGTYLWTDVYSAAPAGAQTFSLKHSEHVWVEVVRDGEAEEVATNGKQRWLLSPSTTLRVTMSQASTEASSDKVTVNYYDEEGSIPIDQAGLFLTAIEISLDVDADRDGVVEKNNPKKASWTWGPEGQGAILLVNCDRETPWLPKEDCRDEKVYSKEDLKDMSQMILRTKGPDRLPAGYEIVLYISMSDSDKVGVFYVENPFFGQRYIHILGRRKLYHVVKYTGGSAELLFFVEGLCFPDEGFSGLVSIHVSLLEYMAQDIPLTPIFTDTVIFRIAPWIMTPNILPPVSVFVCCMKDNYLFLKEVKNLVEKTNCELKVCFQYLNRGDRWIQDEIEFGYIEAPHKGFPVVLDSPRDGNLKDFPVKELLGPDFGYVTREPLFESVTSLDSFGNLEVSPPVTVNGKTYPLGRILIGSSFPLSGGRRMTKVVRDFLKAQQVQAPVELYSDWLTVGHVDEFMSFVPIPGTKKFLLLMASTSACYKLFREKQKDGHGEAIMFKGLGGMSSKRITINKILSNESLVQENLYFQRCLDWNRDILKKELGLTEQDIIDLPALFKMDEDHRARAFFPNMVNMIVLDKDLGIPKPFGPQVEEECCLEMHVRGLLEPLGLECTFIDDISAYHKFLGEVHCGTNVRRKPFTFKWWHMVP

B1: monoclonal antibody 135-B9 (antibody, human IgG1, kappa, V domains shown)
VH: EVKLQESGPGILQPSQTLSLTCSFSGFSLSTSGMCVGWIRQPSGKGLEWLAHIWWDDDKRYNPALKSRLTISKDTSSNQVFLKIASVDTADTATYYCARYYRFDEGFDYWGQGTTLTVSS
VL: DIVITQDELSNPVTLGTSASISCRSSKSLLHSDGITYLYWYLQKPGQSPQLLIYQMSNLASGVPDRFSSSGSGTDFTLRISRVEAEDVGVYYCAQNLELPLTFGAGTKLELKR
- OD (protein PADI2 [1]): 0.06 OD
- OD [2]: 4.13 OD
- OD (protein PADI2 [3]): 0.05 OD
- OD [4]: 3.95 OD
- OD (protein PADI2 [5]): 0.05 OD
- OD [6]: 3.53 OD
- OD (protein PADI2 [7]): 0.05 OD
- OD [8]: 2.47 OD
- OD (protein PADI2 [9]): 0.05 OD
- OD [10]: 1.69 OD
- OD (protein PADI2 [11]): 0.05 OD
- OD [12]: 0.92 OD
- OD (protein PADI2 [13]): 0.05 OD
- OD [14]: 0.46 OD
- OD (protein PADI2 [15]): 0.06 OD
- OD [16]: 0.04 OD
